{"source": "the supplement of paper PMC10567573", "parents": {"B1": {"name": "NFE2L1 (parent)", "chain": "TLDGYGIHPKSIDLDNYFTARRLL"}}}
{"variants_of": "B1", "test": "protein stability index of a GFP-peptide fusion (GPS, HEK-293T) (PSI 1-6); higher = more stable", "conditions": "c terminus: a fixed tail appended"}
{"variant": "TLDGYGDHPKSIDLDNYFTARRLL", "note": "[I7D]", "protein stability index": 2.4}
{"variant": "TLDGYGMHPKSIDLDNYFTARRLL", "note": "[I7M]", "protein stability index": 1.75}
{"variant": "TLDGYGGHPKSIDLDNYFTARRLL", "note": "[I7G]", "protein stability index": 1.92}
{"variant": "TLDGYGRHPKSIDLDNYFTARRLL", "note": "[I7R]", "protein stability index": 2.04}
{"variant": "TLDGYGQHPKSIDLDNYFTARRLL", "note": "[I7Q]", "protein stability index": 2.35}
{"variant": "TLDGYGCHPKSIDLDNYFTARRLL", "note": "[I7C]", "protein stability index": 2.4}
{"variant": "TLDGYGNHPKSIDLDNYFTARRLL", "note": "[I7N]", "protein stability index": 2.1}
{"variant": "TLDGYGAHPKSIDLDNYFTARRLL", "note": "[I7A]", "protein stability index": 2.01}
{"variant": "TLDGYGIHPKSIDLDNGFTARRLL", "note": "[Y17G]", "protein stability index": 2.32}
{"variant": "TLDGYGIHPKSIDLDNPFTARRLL", "note": "[Y17P]", "protein stability index": 3.23}
{"variant": "TLDGYGIHPKSIDLDNWFTARRLL", "note": "[Y17W]", "protein stability index": 1.5}
{"variant": "TLDGYGIHPKSIDLDNLFTARRLL", "note": "[Y17L]", "protein stability index": 2.06}
{"variant": "TLDGYGIHPKSIDLDNSFTARRLL", "note": "[Y17S]", "protein stability index": 2.55}
{"variant": "TLDGYGIHPKSIDLDNCFTARRLL", "note": "[Y17C]", "protein stability index": 1.71}
{"variant": "TLDGYGIHPKSIDLDNKFTARRLL", "note": "[Y17K]", "protein stability index": 2.57}
{"variant": "TLDGYGIHPKSIDLDNMFTARRLL", "note": "[Y17M]", "protein stability index": 2.36}
{"variant": "TLDGYGIHPKSIDLDNRFTARRLL", "note": "[Y17R]", "protein stability index": 2.58}
{"variant": "TLDGYGIHPKSIDLDNYFTFRRLL", "note": "[A20F]", "protein stability index": 1.8}
{"variant": "TLDGYGIHPKSIDLDNYFTQRRLL", "note": "[A20Q]", "protein stability index": 2.23}
{"variant": "TLDGYGIHPKSIDLDNYFTWRRLL", "note": "[A20W]", "protein stability index": 2.04}
{"variant": "TLDGYGIHPKSIDLDNYFTMRRLL", "note": "[A20M]", "protein stability index": 1.96}
{"variant": "TLDGYGIHPKSIDLDNYFTDRRLL", "note": "[A20D]", "protein stability index": 2.76}
{"variant": "TLDGYGIHPKSIDLDNYFTVRRLL", "note": "[A20V]", "protein stability index": 1.35}
{"variant": "TLDGYGIHPKSIDLDNYFTHRRLL", "note": "[A20H]", "protein stability index": 1.66}
{"variant": "TLDGYGIHPKSIDLDNYFTPRRLL", "note": "[A20P]", "protein stability index": 1.84}
{"variant": "TLDGYGIHYKSIDLDNYFTARRLL", "note": "[P9Y]", "protein stability index": 1.68}
{"variant": "TLDGYGIHVKSIDLDNYFTARRLL", "note": "[P9V]", "protein stability index": 1.5}
{"variant": "TLDGYGIHQKSIDLDNYFTARRLL", "note": "[P9Q]", "protein stability index": 2.08}
{"variant": "TLDGYGIHCKSIDLDNYFTARRLL", "note": "[P9C]", "protein stability index": 1.62}
{"variant": "TLDGYGIHAKSIDLDNYFTARRLL", "note": "[P9A]", "protein stability index": 1.68}
{"variant": "TLDGYGIHKKSIDLDNYFTARRLL", "note": "[P9K]", "protein stability index": 2.24}
{"variant": "TLDGYGIHDKSIDLDNYFTARRLL", "note": "[P9D]", "protein stability index": 1.88}
{"variant": "TLDGYGIHPKSIDADNYFTARRLL", "note": "[L14A]", "protein stability index": 2.2}
{"variant": "TLDGYGIHPKSIDFDNYFTARRLL", "note": "[L14F]", "protein stability index": 1.82}
{"variant": "TLDGYGIHPKSIDMDNYFTARRLL", "note": "[L14M]", "protein stability index": 2.02}
{"variant": "TLDGYGIHPKSIDPDNYFTARRLL", "note": "[L14P]", "protein stability index": 2.31}
{"variant": "TLDGYGIHPKSIDGDNYFTARRLL", "note": "[L14G]", "protein stability index": 2.31}
{"variant": "TLDGYGIHPKSIDRDNYFTARRLL", "note": "[L14R]", "protein stability index": 2.1}
{"variant": "TLDGYGIHPKSIDWDNYFTARRLL", "note": "[L14W]", "protein stability index": 1.95}
{"variant": "TLDGYGIHPKSIDTDNYFTARRLL", "note": "[L14T]", "protein stability index": 2.55}
{"variant": "TLDGYGIHPKSIDHDNYFTARRLL", "note": "[L14H]", "protein stability index": 2.01}
{"variant": "TLDGYGIHPKSIDEDNYFTARRLL", "note": "[L14E]", "protein stability index": 3.11}
{"variant": "TLDGYGIHPKSVDLDNYFTARRLL", "note": "[I12V]", "protein stability index": 1.85}
{"variant": "TLDGYGIHPKSNDLDNYFTARRLL", "note": "[I12N]", "protein stability index": 1.93}
{"variant": "TLDGYGIHPKSEDLDNYFTARRLL", "note": "[I12E]", "protein stability index": 2.99}
{"variant": "TLDGYGIHPKSQDLDNYFTARRLL", "note": "[I12Q]", "protein stability index": 2.33}
{"variant": "TLDGYGIHPKSLDLDNYFTARRLL", "note": "[I12L]", "protein stability index": 1.66}
{"variant": "TLDGYGIHPKSGDLDNYFTARRLL", "note": "[I12G]", "protein stability index": 2.43}
{"variant": "TLDGYGIHPKSCDLDNYFTARRLL", "note": "[I12C]", "protein stability index": 2.18}
{"variant": "TLDGYGIHPKSADLDNYFTARRLL", "note": "[I12A]", "protein stability index": 1.89}
{"variant": "TLDGYGIHPKSDDLDNYFTARRLL", "note": "[I12D]", "protein stability index": 3.05}
{"variant": "TLDGYGIHPKSSDLDNYFTARRLL", "note": "[I12S]", "protein stability index": 1.87}
{"variant": "TLDGYGIHPKSIDLTNYFTARRLL", "note": "[D15T]", "protein stability index": 1.77}
{"variant": "TLDGYGIHPKSIDLENYFTARRLL", "note": "[D15E]", "protein stability index": 1.96}
{"variant": "TLDGYGIHPKSIDLSNYFTARRLL", "note": "[D15S]", "protein stability index": 2.44}
{"variant": "TLDGYGIHPKSIDLWNYFTARRLL", "note": "[D15W]", "protein stability index": 2.21}
{"variant": "TLDGYGIHPKSIDLRNYFTARRLL", "note": "[D15R]", "protein stability index": 2.74}
{"variant": "TLDGYGIHPKSIDLLNYFTARRLL", "note": "[D15L]", "protein stability index": 1.57}
{"variant": "TLDGYGIHPKSIDLINYFTARRLL", "note": "[D15I]", "protein stability index": 2.47}
{"variant": "TLDGYGIHPKSIDLCNYFTARRLL", "note": "[D15C]", "protein stability index": 1.48}
{"variant": "TLDGYGIHPKSIDLNNYFTARRLL", "note": "[D15N]", "protein stability index": 2.2}
{"variant": "TLDGYGIHPKSIDLFNYFTARRLL", "note": "[D15F]", "protein stability index": 2.6}
{"variant": "TLDGYGIHPKAIDLDNYFTARRLL", "note": "[S11A]", "protein stability index": 1.49}
{"variant": "TLDGYGIHPKWIDLDNYFTARRLL", "note": "[S11W]", "protein stability index": 1.67}
{"variant": "TLDGYGIHPKDIDLDNYFTARRLL", "note": "[S11D]", "protein stability index": 2.38}
{"variant": "TLDGYGIHPKRIDLDNYFTARRLL", "note": "[S11R]", "protein stability index": 1.97}
{"variant": "TLDGYGIHPKYIDLDNYFTARRLL", "note": "[S11Y]", "protein stability index": 1.67}
{"variant": "TLDGYGIHPNSIDLDNYFTARRLL", "note": "[K10N]", "protein stability index": 2.44}
{"variant": "TLDGYGIHPTSIDLDNYFTARRLL", "note": "[K10T]", "protein stability index": 1.94}
{"variant": "TLDGYGIHPASIDLDNYFTARRLL", "note": "[K10A]", "protein stability index": 1.79}
{"variant": "TLDGYGIHPHSIDLDNYFTARRLL", "note": "[K10H]", "protein stability index": 2.2}
{"variant": "TLDGYGIHPRSIDLDNYFTARRLL", "note": "[K10R]", "protein stability index": 2.11}
{"variant": "TLDGYGIHPGSIDLDNYFTARRLL", "note": "[K10G]", "protein stability index": 1.93}
{"variant": "TLDGYGIHPMSIDLDNYFTARRLL", "note": "[K10M]", "protein stability index": 1.88}
{"variant": "TLDGYGIHPISIDLDNYFTARRLL", "note": "[K10I]", "protein stability index": 1.94}
{"variant": "HLDGYGIHPKSIDLDNYFTARRLL", "note": "[T1H]", "protein stability index": 1.69}
{"variant": "PLDGYGIHPKSIDLDNYFTARRLL", "note": "[T1P]", "protein stability index": 2.37}
{"variant": "DLDGYGIHPKSIDLDNYFTARRLL", "note": "[T1D]", "protein stability index": 1.92}
{"variant": "WLDGYGIHPKSIDLDNYFTARRLL", "note": "[T1W]", "protein stability index": 3.41}
{"variant": "TLDGYGIRPKSIDLDNYFTARRLL", "note": "[H8R]", "protein stability index": 1.55}
{"variant": "TLDGYGITPKSIDLDNYFTARRLL", "note": "[H8T]", "protein stability index": 2.05}
{"variant": "TLDGYGIIPKSIDLDNYFTARRLL", "note": "[H8I]", "protein stability index": 1.98}
{"variant": "TLDGYGIGPKSIDLDNYFTARRLL", "note": "[H8G]", "protein stability index": 1.75}
{"variant": "TLDGYGIWPKSIDLDNYFTARRLL", "note": "[H8W]", "protein stability index": 1.66}
{"variant": "TLDGYGICPKSIDLDNYFTARRLL", "note": "[H8C]", "protein stability index": 1.87}
{"variant": "TLDIYGIHPKSIDLDNYFTARRLL", "note": "[G4I]", "protein stability index": 1.65}
{"variant": "TLDHYGIHPKSIDLDNYFTARRLL", "note": "[G4H]", "protein stability index": 1.62}
{"variant": "TLDEYGIHPKSIDLDNYFTARRLL", "note": "[G4E]", "protein stability index": 1.47}
{"variant": "TLDWYGIHPKSIDLDNYFTARRLL", "note": "[G4W]", "protein stability index": 1.91}
{"variant": "TLDCYGIHPKSIDLDNYFTARRLL", "note": "[G4C]", "protein stability index": 1.43}
{"variant": "TLDFYGIHPKSIDLDNYFTARRLL", "note": "[G4F]", "protein stability index": 1.46}
{"variant": "TLDSYGIHPKSIDLDNYFTARRLL", "note": "[G4S]", "protein stability index": 2.13}
{"variant": "TLDLYGIHPKSIDLDNYFTARRLL", "note": "[G4L]", "protein stability index": 1.27}
{"variant": "TLDRYGIHPKSIDLDNYFTARRLL", "note": "[G4R]", "protein stability index": 1.95}
